Biological target: AhR;ARNT (mouse (C57BL/6);mouse (C57BL/6), UniProt P30561;P53762 1-848;1-791, |)
Assay: EMSA

AhR;ARNT, sequence (P30561 whole entry, chain 1 of 2): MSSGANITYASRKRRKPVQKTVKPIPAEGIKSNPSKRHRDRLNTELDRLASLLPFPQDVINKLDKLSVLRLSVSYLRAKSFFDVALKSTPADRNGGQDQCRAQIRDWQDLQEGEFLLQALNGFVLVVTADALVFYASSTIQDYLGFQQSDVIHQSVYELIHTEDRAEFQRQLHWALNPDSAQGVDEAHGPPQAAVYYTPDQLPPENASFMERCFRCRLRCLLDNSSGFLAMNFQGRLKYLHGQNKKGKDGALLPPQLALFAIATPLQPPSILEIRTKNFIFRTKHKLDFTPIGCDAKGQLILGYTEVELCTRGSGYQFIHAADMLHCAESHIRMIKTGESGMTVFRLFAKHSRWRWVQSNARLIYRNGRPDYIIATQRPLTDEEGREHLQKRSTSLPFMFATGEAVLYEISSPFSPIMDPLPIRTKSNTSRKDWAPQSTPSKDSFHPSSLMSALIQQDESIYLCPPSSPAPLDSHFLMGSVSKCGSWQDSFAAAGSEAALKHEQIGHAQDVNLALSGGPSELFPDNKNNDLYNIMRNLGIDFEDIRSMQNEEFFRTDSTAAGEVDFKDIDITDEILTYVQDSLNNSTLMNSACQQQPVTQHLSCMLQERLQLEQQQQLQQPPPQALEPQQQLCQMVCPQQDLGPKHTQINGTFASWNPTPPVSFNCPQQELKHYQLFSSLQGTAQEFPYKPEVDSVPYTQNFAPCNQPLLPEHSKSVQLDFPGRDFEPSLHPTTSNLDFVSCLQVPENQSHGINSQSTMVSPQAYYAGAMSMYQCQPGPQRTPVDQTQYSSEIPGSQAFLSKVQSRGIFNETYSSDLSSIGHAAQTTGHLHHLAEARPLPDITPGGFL
AhR;ARNT, sequence (P53762 whole entry, chain 2 of 2): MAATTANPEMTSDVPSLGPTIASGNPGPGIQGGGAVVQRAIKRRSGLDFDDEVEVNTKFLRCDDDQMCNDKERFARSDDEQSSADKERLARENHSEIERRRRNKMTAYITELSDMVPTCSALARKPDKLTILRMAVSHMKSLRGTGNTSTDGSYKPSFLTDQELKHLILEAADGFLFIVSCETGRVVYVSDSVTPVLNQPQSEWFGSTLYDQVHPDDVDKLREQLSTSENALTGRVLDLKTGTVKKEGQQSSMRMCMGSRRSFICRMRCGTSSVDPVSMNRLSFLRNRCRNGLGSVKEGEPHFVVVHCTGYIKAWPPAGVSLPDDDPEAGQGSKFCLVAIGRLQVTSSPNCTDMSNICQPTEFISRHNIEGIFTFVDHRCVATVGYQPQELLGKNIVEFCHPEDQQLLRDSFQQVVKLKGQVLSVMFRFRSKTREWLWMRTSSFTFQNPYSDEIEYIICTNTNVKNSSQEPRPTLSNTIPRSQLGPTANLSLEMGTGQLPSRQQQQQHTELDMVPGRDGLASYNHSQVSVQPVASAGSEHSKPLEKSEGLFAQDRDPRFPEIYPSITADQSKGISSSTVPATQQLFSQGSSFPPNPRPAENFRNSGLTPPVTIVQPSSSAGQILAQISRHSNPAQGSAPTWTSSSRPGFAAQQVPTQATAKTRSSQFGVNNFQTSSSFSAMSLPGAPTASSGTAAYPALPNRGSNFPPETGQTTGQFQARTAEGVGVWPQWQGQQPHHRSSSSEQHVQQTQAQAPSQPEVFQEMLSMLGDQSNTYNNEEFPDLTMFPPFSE

B1: Bax DRE-like (dsDNA)
DNA 1: GATCCAGAAAGCCGGGCGTGGTGGCGCACGCCTTTAATCCCA
DNA 2: GATCTGGGATTAAAGGCGTGCGCCACCACGCCCGGCTTTCTG
- binding result: no binding

From article PMC3875388
